Legend:
copb_yeast SEC26 [1] = target: copb_yeast SEC26 (UniProt P41810)
cope_yeast SEC28 [2] = target: cope_yeast SEC28 (UniProt P40509)
glo3_yeast GLO3 [3] = target: glo3_yeast GLO3 (UniProt P38682)
gcs1_yeast GCS1 [4] = target: gcs1_yeast GCS1 (UniProt P35197)
copb_yeast SEC26 [5] = target: copb_yeast SEC26 (UniProt P41810); remark: listed apart in the source
cope_yeast SEC28 [6] = target: cope_yeast SEC28 (UniProt P40509); remark: listed apart in the source
glo3_yeast GLO3 [7] = target: glo3_yeast GLO3 (UniProt P38682); remark: listed apart in the source
gcs1_yeast GCS1 [8] = target: gcs1_yeast GCS1 (UniProt P35197); remark: listed apart in the source

Chain of ADP-ribosylation factor 1 (Homo sapiens), P84077 Q71L (P84077 whole entry Q71L): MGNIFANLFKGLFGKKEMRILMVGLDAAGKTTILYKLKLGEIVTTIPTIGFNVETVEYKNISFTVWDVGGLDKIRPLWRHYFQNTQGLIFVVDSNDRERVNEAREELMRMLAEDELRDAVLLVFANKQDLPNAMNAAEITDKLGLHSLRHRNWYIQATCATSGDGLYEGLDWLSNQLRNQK
Chain of cope_yeast SEC28 (P40509 whole entry): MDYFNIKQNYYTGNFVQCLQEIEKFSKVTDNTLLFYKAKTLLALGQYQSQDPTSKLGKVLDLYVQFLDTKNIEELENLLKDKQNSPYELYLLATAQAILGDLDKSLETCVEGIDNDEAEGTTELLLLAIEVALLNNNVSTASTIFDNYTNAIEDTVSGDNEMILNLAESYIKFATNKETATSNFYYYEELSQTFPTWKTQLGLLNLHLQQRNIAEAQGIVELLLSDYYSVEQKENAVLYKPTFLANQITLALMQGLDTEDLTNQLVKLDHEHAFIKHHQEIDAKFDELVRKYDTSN
Chain of copb_yeast SEC26 (P41810 whole entry): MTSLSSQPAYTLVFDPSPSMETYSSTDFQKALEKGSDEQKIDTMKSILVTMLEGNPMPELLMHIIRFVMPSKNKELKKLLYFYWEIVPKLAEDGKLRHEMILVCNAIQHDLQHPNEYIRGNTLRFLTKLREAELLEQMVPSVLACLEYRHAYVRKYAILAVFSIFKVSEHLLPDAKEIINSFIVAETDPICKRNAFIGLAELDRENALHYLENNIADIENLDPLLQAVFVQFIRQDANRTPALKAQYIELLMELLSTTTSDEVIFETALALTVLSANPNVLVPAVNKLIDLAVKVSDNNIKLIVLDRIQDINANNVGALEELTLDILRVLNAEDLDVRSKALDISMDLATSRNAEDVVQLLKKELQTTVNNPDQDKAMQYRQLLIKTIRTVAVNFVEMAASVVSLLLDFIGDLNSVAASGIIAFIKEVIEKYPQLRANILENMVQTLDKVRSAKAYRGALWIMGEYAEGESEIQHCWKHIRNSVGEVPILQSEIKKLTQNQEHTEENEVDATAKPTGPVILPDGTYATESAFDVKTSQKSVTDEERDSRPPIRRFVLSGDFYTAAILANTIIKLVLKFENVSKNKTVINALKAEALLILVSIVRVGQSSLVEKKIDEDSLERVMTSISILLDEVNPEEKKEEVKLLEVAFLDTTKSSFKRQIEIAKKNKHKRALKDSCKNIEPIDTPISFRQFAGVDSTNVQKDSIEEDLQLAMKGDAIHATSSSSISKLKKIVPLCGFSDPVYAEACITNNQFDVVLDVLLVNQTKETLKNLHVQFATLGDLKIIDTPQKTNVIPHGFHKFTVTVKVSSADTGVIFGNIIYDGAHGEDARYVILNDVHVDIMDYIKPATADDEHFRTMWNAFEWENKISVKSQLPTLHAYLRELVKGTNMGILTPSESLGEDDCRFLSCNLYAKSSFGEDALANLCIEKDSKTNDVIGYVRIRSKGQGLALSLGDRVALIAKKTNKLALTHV
Chain of gcs1_yeast GCS1 (P35197 whole entry): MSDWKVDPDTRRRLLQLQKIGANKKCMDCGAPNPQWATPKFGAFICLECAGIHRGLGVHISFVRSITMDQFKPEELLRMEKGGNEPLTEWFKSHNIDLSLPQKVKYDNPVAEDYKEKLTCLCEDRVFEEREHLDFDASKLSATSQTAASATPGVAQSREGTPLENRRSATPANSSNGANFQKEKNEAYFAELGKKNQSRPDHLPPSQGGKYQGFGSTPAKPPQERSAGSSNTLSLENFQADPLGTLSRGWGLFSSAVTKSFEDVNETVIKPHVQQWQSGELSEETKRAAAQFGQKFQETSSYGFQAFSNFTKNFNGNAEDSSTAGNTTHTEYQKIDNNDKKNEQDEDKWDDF
Chain of glo3_yeast GLO3 (P38682 whole entry): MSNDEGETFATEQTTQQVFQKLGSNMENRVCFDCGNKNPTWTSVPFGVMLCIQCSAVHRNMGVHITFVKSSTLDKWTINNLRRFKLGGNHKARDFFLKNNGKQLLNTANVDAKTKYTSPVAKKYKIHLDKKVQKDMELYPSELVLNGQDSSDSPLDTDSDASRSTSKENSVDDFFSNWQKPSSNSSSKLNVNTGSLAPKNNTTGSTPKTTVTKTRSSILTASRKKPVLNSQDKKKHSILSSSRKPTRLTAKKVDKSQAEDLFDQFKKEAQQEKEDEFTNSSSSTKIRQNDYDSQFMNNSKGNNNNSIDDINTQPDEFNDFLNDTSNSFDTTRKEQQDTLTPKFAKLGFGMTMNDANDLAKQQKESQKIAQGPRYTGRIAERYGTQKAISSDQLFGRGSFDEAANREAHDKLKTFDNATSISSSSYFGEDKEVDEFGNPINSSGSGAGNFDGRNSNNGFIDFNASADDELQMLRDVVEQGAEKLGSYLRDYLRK

| effect of a mutation on the interaction (copb_yeast SEC26 [1]) | effect of a mutation on the interaction (cope_yeast SEC28 [2]) | effect of a mutation on the interaction (glo3_yeast GLO3 [3]) | effect of a mutation on the interaction (gcs1_yeast GCS1 [4]) | effect of a mutation on the interaction (copb_yeast SEC26 [5]) | effect of a mutation on the interaction (cope_yeast SEC28 [6]) | effect of a mutation on the interaction (glo3_yeast GLO3 [7]) | effect of a mutation on the interaction (gcs1_yeast GCS1 [8]) | Substance |
| --- | --- | --- | --- | --- | --- | --- | --- | --- |
| increasing interaction | increasing interaction | increasing interaction | increasing interaction | – | – | – | – | ADP-ribosylation factor 1 (Homo sapiens), P84077 N126I |
| – | – | – | – | increasing interaction | increasing interaction | increasing interaction | increasing interaction | ADP-ribosylation factor 1 (Homo sapiens), P84077 Q71L |

— IntAct's records for PubMed 10921873
